The values below come from US20120093787A1.

Experiment [1] concerns the target C34-CXCR4 isoform B fusion protein (C34-X4b), expressed on CXCR4-/- B4 SupT1 cells by lentiviral transduction (Pan troglodytes (Chimpanzee)) (UniProt P61072). Nature of the experiment: flow cytometry on C34-X4b B4 SupT1 transfectants, PE goat anti-mIgG detection. (In flow cytometry, cells or beads pass a laser one at a time.)
Experiment [2] has as its target wild-type CXCR4 isoform B (X4b-WT), expressed on CXCR4-/- B4 SupT1 cells by lentiviral transduction (UniProt P61073). Nature of the experiment: flow cytometry on X4b WT B4 SupT1 transfectants, PE goat anti-mIgG detection.
UniProt P61073, sequence (P61073 whole entry, canonical isoform): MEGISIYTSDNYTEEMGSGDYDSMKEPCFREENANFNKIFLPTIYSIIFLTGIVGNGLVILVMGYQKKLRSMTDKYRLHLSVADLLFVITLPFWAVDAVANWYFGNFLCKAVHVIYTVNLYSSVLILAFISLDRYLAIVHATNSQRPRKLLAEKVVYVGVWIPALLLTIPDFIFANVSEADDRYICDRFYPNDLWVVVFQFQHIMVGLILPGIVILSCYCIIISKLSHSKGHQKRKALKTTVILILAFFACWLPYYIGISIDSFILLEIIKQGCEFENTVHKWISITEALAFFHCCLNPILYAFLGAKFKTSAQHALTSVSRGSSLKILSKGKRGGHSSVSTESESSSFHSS

UniProt P61072, sequence (P61072 1-352, tags or fused parts left off): as the sequence (P61073 whole entry, canonical isoform) above

As to “anti-CXCR4 monoclonal antibody 12G5 (BD Biosciences)”, in experiment [1], the MFI came out at 253 MFI and the positively stained cells (%) turned out to be 96.6%. Besides, in experiment [2], the MFI was 214 MFI and the positively stained cells (%) was 95.8%.

For the substance isotype control mIgG1 (antibody), the positively stained cells (%) in experiment [1] and in experiment [2] was 0% throughout.

Consider isotype control mIgG2a (antibody), for which the positively stained cells (%) turned out to be 0.39% in experiment [1] and 0.98% in experiment [2].
